The values below come from IntAct's records for PubMed 11100732.

B1: Autophagy-related protein 3 (Saccharomyces cerevisiae), P40344 (parent)
chain: MIRSTLSSWREYLTPITHKSTFLTTGQITPEEFVQAGDYLCHMFPTWKWNEESSDISYRDFLPKNKQFLIIRKVPCDKRAEQCVEVEGPDVIMKGFAEDGDEDDVLEYIGSETEHVQSTPAGGTKDSSIDDIDELIQDMEIKEEDENDDTEEFNAKGGLAKDMAQERYYDLYIAYSTSYRVPKMYIVGFNSNGSPLSPEQMFEDISADYRTKTATIEKLPFYKNSVLSVSIHPCKHANVMKILLDKVRVVRQRRRKELQEEQELDGVGDWEDLQDDIDDSLRVDQYLIVFLKFITSVTPSIQHDYTMEGW
partner: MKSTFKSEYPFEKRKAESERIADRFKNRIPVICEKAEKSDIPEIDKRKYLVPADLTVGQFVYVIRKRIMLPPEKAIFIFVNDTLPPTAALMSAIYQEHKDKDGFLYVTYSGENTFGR

The variants in the test derive from B1. The note with it: with atg8_yeast ATG8, P38182.
For MIRSTLSSWREYLTPITHKSTFLTTGQITPEEFVQAGDYLCHMFPTWKWNEESSDISYRDFLPKNKQFLIIRKVPCDKRAEQCVEVEGPDVIMKGFAEDGDEDDVLEYIGSETEHVQSTPAGGTKDSSIDDIDELIQDMEIKEEDENDDTEEFNAKGGLAKDMAQERYYDLYIAYSTSYRVPKMYIVGFNSNGSPLSPEQMFEDISADYRTKTATIEKLPFYKNSVLSVSIHPAKHANVMKILLDKVRVVRQRRRKELQEEQELDGVGDWEDLQDDIDDSLRVDQYLIVFLKFITSVTPSIQHDYTMEGW [C234A], the “effect of a mutation on the interaction” value is “disrupting interaction”.
The result for MIRSTLSSWREYLTPITHKSTFLTTGQITPEEFVQAGDYLCHMFPTWKWNEESSDISYRDFLPKNKQFLIIRKVPCDKRAEQCVEVEGPDVIMKGFAEDGDEDDVLEYIGSETEHVQSTPAGGTKDSSIDDIDELIQDMEIKEEDENDDTEEFNAKGGLAKDMAQERYYDLYIAYSTSYRVPKMYIVGFNSNGSPLSPEQMFEDISADYRTKTATIEKLPFYKNSVLSVSIHPSKHANVMKILLDKVRVVRQRRRKELQEEQELDGVGDWEDLQDDIDDSLRVDQYLIVFLKFITSVTPSIQHDYTMEGW [C234S] reads “disrupting interaction”.
